Measurements: US20240294613A1 (BROAD INSTITUTE, published 2024)

Biological target: SARS-COV-2 spike on authentic SARS-COV-2 virus (SARS-COV-2, UniProt P0DTC2 14-1273)
Assay: cell-based or functional assay

B1: BG7-15 (antibody, V domains shown)
VH: QVQLVQSGAEVKKPGASVKVSCKASGYTFTSYAISWVRQAPGQGLEWMGWVSAYNGNTNYAQKLQGRVTMTTDTSTNTAYMELRSLRSDDTAIYYCAIPYSSVTFDCWGQGTLVTVSS
VL: EIVLTQSPGTLSLSPGERATLSCRASQSVSGTFLAWYQQKPGQAPRLLISGASSRATGIPDRFSGSGSGTDFTLTISRLEPEDFAVYYCQQYGSSRPTFGQGTKLEIKR
- LV IC50: 0.114 µg/mL

B2: BG7-18 (antibody, V domains shown)
VH: EVQLMESGGGLIQPGGSLRLSCAASGFIVSSNYMSWVRQAPGKGLEWVSVIYSGGGTDYADSVKGRFTISRDNSKNTLFLQMNSLRAEDTAVYYCARGAAMVKELFDYWGQGTQVTVSS
VL: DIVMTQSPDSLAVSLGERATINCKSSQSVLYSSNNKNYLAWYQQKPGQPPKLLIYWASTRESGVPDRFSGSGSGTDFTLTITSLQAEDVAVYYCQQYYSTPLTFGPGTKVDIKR
- LV IC50: 0.115 µg/mL
